In patent US20160251436A1 (PD 1 ACQUISITION GROUP, published 2016):

Legend:
[1] = target: T1, human Programmed Death-1 (PD-1) expressed on the cell surface (human, UniProt Q15116 25-288); assay: cell-based or functional assay
[2] = target: T1, human Programmed Death-1 (PD-1) …; assay: cell binding, HEK293 cells expressing human PD-1, fluorescent anti-mouse secondary
Procedure: Recombinant antibodies from cultured supernatants were also used in cell-based binding studies. HEK293 cells were transfected (Qiagen, SuperFect) with expression plasmids encoding the Ig heavy and light chains of anti-PD-1 antibodies. After 3-5 days, recombinant antibodies in the supernatants of transfected cells were harvested. Stable HEK293 cells expressing human PD-1 or primary cells were used for the cell-based binding confirmation studies. Antibodies from cultured supernatants were assessed for binding to cell surface PD-1 using fluorescently labeled anti-mouse IgG (polyclonal) antibody (Jackson Immunoresearch).
In both studies, commercially available mouse anti-PD-1 antibody and isotype control mouse IgG1 […] were used as controls. […] Strong binding is denoted as “+++”, medium binding is denoted as “++”, and weak binding is denoted as “+”.

[3] = target: T2, PD-1-HIS (human, UniProt Q15116); assay: ELISA, supernatant of transfected HEK293 cells on PD-1-HIS(tag), OD 450 nm, average of two experiments
T2 construct: soluble extracellular domain; May be the same protein as m2; also called PD-1-HIS(tag); PD-1-His Tag (Sino Biological #10377-H08H-50)
T2 sequence (Q15116 25-167 limits assumed): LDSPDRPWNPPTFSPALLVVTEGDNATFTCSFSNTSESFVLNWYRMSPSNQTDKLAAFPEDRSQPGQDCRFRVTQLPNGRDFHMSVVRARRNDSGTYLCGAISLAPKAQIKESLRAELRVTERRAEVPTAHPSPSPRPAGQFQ

[4] = target: T3, soluble extracellular domain of human PD-1 (human, UniProt Q15116 25-170); assay: BLI (ForteBio Octet Red), antibody on the biosensor, soluble PD-1 ECD as analyte
T3 construct: extracellular domain
T3 sequence (Q15116 25-170): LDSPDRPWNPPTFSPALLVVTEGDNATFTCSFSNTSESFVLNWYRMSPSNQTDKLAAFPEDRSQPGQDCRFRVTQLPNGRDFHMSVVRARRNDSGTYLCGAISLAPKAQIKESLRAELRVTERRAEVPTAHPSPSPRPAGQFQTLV
Procedure: Biophysical characteristics of certain anti-PD-1 antibodies were analyzed by biolayer interferometry (BLI), using the ForteBio Octet Red system (Pall Corporation, Menlo Park, Calif.). The antibodies were immobilized on BLI biosensors and then incubated with the soluble extracellular domain of human PD-1. Using standard biophysics methods, apparent on-rates and off-rates were then inferred for PD-1 with anti-PD-1 antibodies.

[5] = target: T1, human Programmed Death-1 (PD-1) …; assay: cell-based or functional assay; remark: listed apart in the source

T1 sequence (Q15116 25-288): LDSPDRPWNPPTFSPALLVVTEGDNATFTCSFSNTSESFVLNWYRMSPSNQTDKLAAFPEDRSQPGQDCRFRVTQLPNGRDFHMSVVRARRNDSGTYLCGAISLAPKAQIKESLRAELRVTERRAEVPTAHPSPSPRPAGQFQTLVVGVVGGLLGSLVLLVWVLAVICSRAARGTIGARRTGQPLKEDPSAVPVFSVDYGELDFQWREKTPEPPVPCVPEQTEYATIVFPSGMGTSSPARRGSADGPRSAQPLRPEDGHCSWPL

binding result [3] | Binder | binding result [2] | also measured
 | 244C8-1 (100244_C8_HC1 + 100245_C8_LC1) (antibody, V domains shown) VH: QVQLVQSGAEVKKPGASVKVSCKASGYTFTSYWMHWVRQAPGQGLEWMGMIDPSNSETSLNQKFQGRVTMTVDKSTNTVYMELSSLRSEDTAVYYCARSRGNYAYEMDYWGQGTLVTVSS VL: EIVLTQSPATLSLSPGERATLSCRASSSVSSNYLYWYQQKPGQAPRLLIYSTSNRATGIPARFSGSGSGTDYTLTISSLEPEDFAVYYCHQWSSYPPTFGQGTKLEIK |  | Fold Induction IFN-γ (relative to isotype control; NSCLC biopsy cells, 20 µg/mL) [1]: 8.04 fold
 | 244C8-3 (100244_C8_HC2 + 100245_C8_LC1) (antibody, V domains shown) VH: EVQLVQSGAEVKKPGASVKVSCKASGYTFTSYWMHWVRQAPGQGLEWMGMIDPSNSETSLNQKFQGRVTLNVDKSTNTAYMELSSLRSEDTAVYYCARSRGNYAYEMDYWGQGTLVTVSS VL: EIVLTQSPATLSLSPGERATLSCRASSSVSSNYLYWYQQKPGQAPRLLIYSTSNRATGIPARFSGSGSGTDYTLTISSLEPEDFAVYYCHQWSSYPPTFGQGTKLEIK |  | Fold Induction IFN-γ (relative to isotype control; NSCLC biopsy cells, 20 µg/mL) [1]: 7.79 fold
binds | 100392_C5VH6_100393_C5VK10 (antibody, V domains shown, Mouse variable regions; cloned into pFUSE-CHIg-mG1 (murine IgG1 Fc), expressed in HEK293; also called 392C5B) VH: EVQLQESGPELVKPGASVKIPCKASGYTFTDYNMDWVKQSHGKSLEWIGDIDPNSGGSIYNQKFKGKATLTVDKSSRTVYMELRSLTSEDTAVYYCARWRSSMDYWGQGTSVTVSS VL: DIVMTQSTSSLSASLGDRVTISCSASQGISHYLNWYQQKPDGTVKLLIYYTSSLHSGVPSRFSGSGSGTDYSLTIRNLEPEDIATYYCQQYSELPWTFGGGTKLEIK | binds | 
binds | 100392_D2VH7_100393_D2VK6 (antibody, V domains shown, Mouse variable regions; cloned into pFUSE-CHIg-mG1 (murine IgG1 Fc), expressed in HEK293) VH: EVQLQESGPELVKPGASVKIPCKASGYTFTDYNMDWVKQSHGKSLEWIGDIDPNTGTTFYNQDFKGKATLTVDKSSSTAYMELRSLTSEDTAVYYCARWRSSMDYWGQGTSLTVSS VL: DIVMTQTPSSLSASLGDRVTISCSASQGISYYLNWYQQKPDGTIKLLIYYTLSLHSGVPSRFSGSGSGTDYSLTISNLEPEDIATYYCQQYSELPWTFGGGTKLEIK | binds | 
binds | 100394_D5VH9_100395_D5VK7 (antibody, V domains shown, Mouse variable regions; cloned into pFUSE-CHIg-mG1 (murine IgG1 Fc), expressed in HEK293) VH: EVQLQESGPELVKPGASVKIPCRASGYIFTDYNMDWVKQSHGKSLEWIGDIDPNNGGTIYNQKFKDKTTLTVDKSSRTAYMELRSLTSEDTAVYYCARWRSSMDYWGQGTSVTVSS VL: DIVMTQTPSSMSASLGDRVTISCSASQGISNYLNWYQQKPDGTVKLLIYYTSSLHSGVPSRFSGSGSGTDYSLTISNLEPEDIATYYCQQYSYLPWTFGGGTKLEIK | binds | 
binds | 100394_G1VH1_100395_G1VK4 (antibody, V domains shown, Mouse variable regions; cloned into pFUSE-CHIg-mG1 (murine IgG1 Fc), expressed in HEK293) VH: EVQLQESGPELVKPGASVKIPCKASGYTFTDYNMDWVKQNHGKSLEWIGDIDPNNGDTIYNQKFKGKATLTVDKSSRTAYMELRSLTSEDTAVYYCARWRSSMDYWGQGTSVTVSS VL: DIVMTQSPSSLSASLGDRVTISCSASQGISNYLNWYQQRPDGTVKLLIYYTSSLHSGVPSRFSGSGSGTDYSLTISNLEPEDIATYYCQQYSNLPWTFGGGTKLEIK | binds | 
binds | 100392_H4VH9_100393_H4VK6 (antibody, V domains shown, Mouse variable regions; cloned into pFUSE-CHIg-mG1 (murine IgG1 Fc), expressed in HEK293) VH: EVQLQESGPELVKPGASVKIPCKASGYTFTDYNVDWVKQSHGKSLEWIGDIDPNNGGTFYNQKFKGKATLTVDKSSSTAHMELRSLTSEDTAVYYCVRWRSSMDYWGQGTSVTVSS VL: DIVMTQSPSSLSASLGDRVTISCSASQGISNYLNWYQQKPDGTVKLLIYYTSNLHSGVPSRFSGSGSGTDYSLTISDLAPEDIATYYCQQYSYLPWTFGGGTKLEIK | binds | 
binds | 100258_C1VH4_100259_C1VK1 (antibody, V domains shown, Mouse variable regions; cloned into pFUSE-CHIg-mG1 (murine IgG1 Fc), expressed in HEK293) VH: EVQLQESGAELVMPGASVKMSCKASGYTFTDYWMHWVKQRPGQGLEWIGAIDTSDSYTSYHQNFKGKATLTEDESSSTAYMQLSSLTSEDSAIYYCARRDYGGFGYWGQGTTLTVSS VL: DIVITQSPLSLPVGLGDQASISCRSSQSLVHSNGNTYLHWYLQKPGQSPKLLIYKVSNRFSGVPDRFSGSGSGTDFTLKISRVEAEDLGVYFCSQSTHVPYTFGGGTKLEIK | binds | 
 | 100413_D2VH9_100414_D2VK6 (antibody, V domains shown, Mouse variable regions; cloned into pFUSE-CHIg-mG1 (murine IgG1 Fc), expressed in HEK293) VH: EVQLQESGPDLVKPSQSLSLTCTVTGYSITSGYSWHWIRQFPGNKLEWMGFIHYSGDTNYNPSLKSRFSITRDTSKNQFFLHLNSVTPEDTATYYCASPSRLLFDYWGHGTTLTVSS VL: DIVMTQSPSSLTVTAGEKVTMSCKSSQSLLNSGTQKNYLTWYQQKPGQPPKLLIYWASTRESGVPDRFTGSGSGTDFTLTISSVQAEDLAVYYCQNDYSYPLTFGAGTKLEIK |  | Kd [4]: 8.2 nM; koff [4]: 0.00226 s⁻¹; kon [4]: 275000 M⁻¹ s⁻¹
binds | 100392_A6VH8_100393_A6VK5 (antibody, V domains shown, Mouse variable regions; cloned into pFUSE-CHIg-mG1 (murine IgG1 Fc), expressed in HEK293) VH: EVQLQESGAELVRPGASVTLSCKASGYTFTDYEIHWVKQTPVHGLEWIGAIDPETGGTAYNQKFKGKAILTADKSSSTAYMELRSLTSEDSAVYYCTSEKFGSSYYFDYWGQGTTFTVSS VL: DIVMTQSTLSLPVSLGDQVSISCRSSQSIVHSDGNTYLEWYLQKPGQSPNLLIYKVSNRFSGVPDRFSGSGSGTDFTLKISRVEAEDLGVYYCFQGSHVPLTFGAGTKLELK | binds | 
 | 388D4-2 (100388_D4_HC3 + 100389_D4_LC3) (antibody, V domains shown) VH: EVQLVQSGAEVKKPGASVKVSCKASGYTFTDYEMHWVRQAPGQRLEWMGVIDPGTGGTAYNQKFQGRVTITADKSASTAYMELSSLRSEDTAVYYCTSEKFGSNYYFDYWGQGTLVTVSS VL: DIVMTQTPLSSPVTLGQPASISCRSSQTIVHSDGNTYLEWYQQRPGQPPRLLIYKVSNRFSGVPDRFSGSGAGTDFTLKISRVEAEDVGVYYCFQGSHVPLTFGQGTKLEIK |  | Fold Induction IFN-γ (relative to isotype control; NSCLC biopsy cells, 20 µg/mL) [1]: 7.58 fold; Fold Induction IFN-γ (relative to anti-CD3 + anti-CD28 only; antibody at 5 ug/mL) [5]: 2.06 fold; Fold Induction IFN-γ (relative to anti-CD3 + anti-CD28 only; antibody at 10 ug/mL) [5]: 1.82 fold
 | 388D4-3 (100388_D4_HC1 + 100389_D4_LC3) (antibody, V domains shown) VH: EVQLVQSGAEVKKPGASVKVSCKASGYTFTDYEMHWVRQAPGQGLEWMGIIDPGTGGTAYNQKFQGRVTMTADKSTSTVYMELSSLRSEDTAVYYCTSEKFGSNYYFDYWGQGTLVTVSS VL: DIVMTQTPLSSPVTLGQPASISCRSSQTIVHSDGNTYLEWYQQRPGQPPRLLIYKVSNRFSGVPDRFSGSGAGTDFTLKISRVEAEDVGVYYCFQGSHVPLTFGQGTKLEIK |  | Fold Induction IFN-γ (relative to isotype control; NSCLC biopsy cells, 20 µg/mL) [1]: 7.2 fold
binds | 100246_F7VH3_100247_F7VK2 (antibody, V domains shown, Mouse variable regions; cloned into pFUSE-CHIg-mG1 (murine IgG1 Fc), expressed in HEK293) VH: EVQLQESGPELVRPGASVKMSCKASGYTFTSYWMHWVKQRPGQGLEWIGMIDPYSSETSLNQKFKDKATLNVDKISNTAYMQLSSLTSEDSAVYFCARSRGNYAYDMDYWGQGTSVTVSS VL: DIVLTQSTAIMSASPGEKVTLTCSASSGVNSNYLYWYQQKPGSSPKLWIYSTSNLASGVPARFSGSGSGTSYSLTISSVEAEDAASYFCHQWSSYPPTFGSGTKLEIK | binds | 
binds | 100258_F6VH4_100259_F6VK1 (antibody, V domains shown, Mouse variable regions; cloned into pFUSE-CHIg-mG1 (murine IgG1 Fc), expressed in HEK293) VH: EVQLQESGPELVRPGASVKMSCKASGYTFTSYWMHWVKQRPGQGLEWIGMIEPSSSETSLNQKFKDKATLNVDKSSNTAYMQLSSLTSEDSAVYYCARSRGNYAYEMDYWGQGTSVTVSS VL: DIVMTQTTATMSASPGEKVTLTCSASSSVNSNYLYWYQQKPGSSPKVWIYSTSNLASGVPARFSGSGSGTSYSLTISSMEAEDAASYFCHQWSSYPPTFGSGTKLELK | binds | 
